US20060153778A1 (MannKind Corporation, priority 2005, published 2006)
Like-named read-outs stand apart in the source and are kept apart here.

Columns and labels:
[1] = in vivo
[2] = Glucose clamp study after inhalation of Technosphere/Insulin: glucose infusion rate (biological action), tolerability; type: in vivo, human; conditions: for T-50% (time from baseline to half-maximal after passing Tmax), calculated on glucose infusion rate / Tmax, calculated on glucose infusion rate / T50% (time from baseline to half-maximal values), calculated on glucose infusion rate: glucose clamp; for T50% (time from baseline to half-maximal values), calculated on glucose infusion rate: healthy male volunteers
Description: (§1) The volunteers were in good health, as judged by physical examination, age: 18 to 40 years, body mass index: 18 to 26 kg/m^2, capability to reach peak inspiratory flow of ≧4 L/sec measured by a computer assisted spirometry and a FEV1 (FEV1=forced expiratory volume in one second) equal to or greater than 80% of predicted normal.
(§2) On the morning of the study days, the subjects came to the hospital (fasting, except for water, from midnight onward) at 7:30 a.m. The subjects were restricted from excessive physical activities and an intake of alcohol for 24 hours before each treatment day. They were randomly assigned to one of the three treatment arms. […] Blood glucose was kept constant at a level of 90 mg/dL throughout the glucose clamp by a glucose controlled infusion system (BIOSTATOR™, Life Science Instruments, Miles Laboratories, Elkhart, Ind.). The glucose clamp algorithm was based on the actual measured blood glucose concentration and the grade of variability in the minutes before to calculate the glucose infusion rates for keeping the blood glucose concentration constant. […] The duration of the clamp experiment was 6 hours from time point 0. Glucose infusion rates, blood glucose, serum insulin and C-peptide were measured.

[3] = Glucose clamp study: serum insulin concentrations, bioavailability; type: in vivo, human
Description: as §1
as §2, with “0.” for “0. Glucose infusion rates, blood glucose, serum insulin and C-peptide were measured.”

[4] = Time to peak blood concentration and uptake rate after pulmonary delivery (general statements)
[5] = in vivo; remark: listed apart in the source

parathyroid hormone 1-34: peptide complexed with FDKP for pulmonary delivery
Time to peak blood concentrations [1]: 3 to 10 min

salmon calcitonin
Time to peak blood concentrations [1]: 3 to 10 min

insulin: insulin given as 5 IU intravenous or 10 IU subcutaneous injection, or by the pulmonary route without fumaryl diketopiperazine; comparator
T to baseline, calculated on glucose infusion rate ([2]; 5 IU insulin intravenous, clamp duration 6 hours): 240 min | T-50% (time from baseline to half-maximal after passing Tmax), calculated on glucose infusion rate ([2]; 5 IU insulin intravenous): 82 min | Tmax, calculated on glucose infusion rate ([2]; 5 IU insulin intravenous): 14 min | T50% (time from baseline to half-maximal values), calculated on glucose infusion rate ([2]; 5 IU insulin intravenous): 9 min | T-50% (time from baseline to half-maximal after passing Tmax), calculated on glucose infusion rate ([2]; 10 IU insulin subcutaneous): 240 min | Tmax, calculated on glucose infusion rate ([2]; 10 IU insulin subcutaneous): 163 min | T50% (time from baseline to half-maximal values), calculated on glucose infusion rate ([2]; 10 IU insulin subcutaneous): 60 min | T50% (time from baseline to half-maximal values), calculated on insulin levels ([3]; 5 IU insulin intravenous): 2 min | T to baseline, calculated on insulin levels ([3]; 5 IU insulin intravenous): 60 min | T-50% (time from baseline to half-maximal after passing Tmax), calculated on insulin levels ([3]; 5 IU insulin intravenous): 6 min | Tmax, calculated on insulin levels ([3]; 5 IU insulin intravenous): 5 min | T to baseline, calculated on insulin levels ([3]; 10 IU insulin subcutaneous): 360 min | T-50% (time from baseline to half-maximal after passing Tmax), calculated on insulin levels ([3]; 10 IU insulin subcutaneous): 250 min | Tmax, calculated on insulin levels ([3]; 10 IU insulin subcutaneous): 121 min | Time to peak blood concentrations ([4]; pulmonary route without fumaryl diketopiperazine): 25 to 60 min | Time to peak blood level ([4]; subcutaneous injection): 30 to 90 min

CCNC(=O)[C@@H]1CCCN1C(=O)[C@H](CCCNC(=N)N)NC(=O)[C@H](CC(C)C)NC(=O)[C@@H](CC(C)C)NC(=O)[C@H](Cc1ccc(O)cc1)NC(=O)[C@H](CO)NC(=O)[C@H](Cc1c[nH]c2ccccc12)NC(=O)[C@H](Cc1c[nH]cn1)NC(=O)[C@@H]1CCC(=O)N1 [leuprolide]
Time to peak blood concentrations [1]: 3 to 10 min

O=C(O)/C=C/C(=O)NCCCC[C@@H]1NC(=O)[C@H](CCCCNC(=O)/C=C/C(=O)O)NC1=O [FDKP, fumaryl diketopiperazine]
Transit from the lungs [5]: kinetics similar to that of insulin
